# Source: patent US20040132029, “Method of error reduction in nucleic acid populations” (published 2004)
# T1: MutS (MutSt) (UniProt Q56215 Q56215:1-811)
# T1 sequence: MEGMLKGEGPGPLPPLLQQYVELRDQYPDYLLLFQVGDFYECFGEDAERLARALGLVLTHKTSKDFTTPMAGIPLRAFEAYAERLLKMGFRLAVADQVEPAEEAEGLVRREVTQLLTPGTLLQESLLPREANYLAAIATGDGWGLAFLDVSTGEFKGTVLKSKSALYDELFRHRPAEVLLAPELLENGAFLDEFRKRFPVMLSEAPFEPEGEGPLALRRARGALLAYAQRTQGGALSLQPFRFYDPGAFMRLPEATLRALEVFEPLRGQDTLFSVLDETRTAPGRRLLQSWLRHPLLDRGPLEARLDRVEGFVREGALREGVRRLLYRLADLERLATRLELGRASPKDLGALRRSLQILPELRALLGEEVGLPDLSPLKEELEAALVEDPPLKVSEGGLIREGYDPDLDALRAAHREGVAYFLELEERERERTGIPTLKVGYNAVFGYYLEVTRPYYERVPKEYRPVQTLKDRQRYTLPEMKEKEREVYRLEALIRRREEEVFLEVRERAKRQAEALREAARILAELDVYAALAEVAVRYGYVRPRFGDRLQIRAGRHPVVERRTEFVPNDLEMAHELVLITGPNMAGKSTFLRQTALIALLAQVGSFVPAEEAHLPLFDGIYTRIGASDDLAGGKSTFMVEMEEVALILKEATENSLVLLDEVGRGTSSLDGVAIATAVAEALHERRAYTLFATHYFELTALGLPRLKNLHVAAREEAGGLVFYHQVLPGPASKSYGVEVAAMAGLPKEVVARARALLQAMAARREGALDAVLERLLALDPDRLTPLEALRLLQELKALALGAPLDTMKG
# Target: T1, MutS (MutSt)
# Assay: EMSA; 10 mM Tris-HCl pH 8.8, 5 mM MgCl2, 0.1% Triton X-100, 37 C; preferred over wt; tenfold unlabeled del20 competes, proteinase K removes shift
# Conditions: tags: Epicenter Technologies, Madison, Wis; label: 5' fluorescein on anti-sense strand; single unpaired base (deletion at position 20 of anti-sense)
# Experimental: In a typical reaction 80 pmols of unlabeled sense strand were mixed with 40 pmols of Cy5 labeled anti-sense strand and 40 pmols of fluorescein labeled mutant strand (del20 or C>A) in 1× Muts buffer ( 10 mM Tris-HCl pH 8.8, 5 mM MgCl₂, 0.1% TritonX-100). The mixture was annealed in a thermocycler after being first denatured at 95° C. for 5 minutes. The mixture was then cooled at 0.2° C./sec until temperature reaches 25° C. The duplex DNA thus created is illustrated in FIG. 5.
# 2 or 6 μg of MutSₜ protein (Epicenter Technologies, Madison, Wis.) was added to the annealed oligonucleotides. The mixture was then incubated at 37° C. for 30 minutes.
binder,measurement,value
GFPuv 351-390 del20 heteroduplex (dsDNA) DNA 1: GTTAATGGGCACAAATTTTCTGTCAGTGGAGAGGGTGAAG DNA 2: CTTCACCCTCTCCACTGACGAAAATTTGTGCCCATTAAC,binding result,binds
